Assay results reported in the supplement of paper PMC10567573.

B1: ANKRD44 (parent)
chain: FHCIETLVTTGANVNETDDWGRTA

Variants of: B1
Assay: protein stability index of a GFP-peptide fusion (GPS, HEK-293T) (PSI 1-6); higher = more stable
Conditions: c terminus: a fixed tail appended
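Note: lentivirally expressed fusions sorted by FACS into six bins by GFP to DsRed ratio, PSI derived from sequencing read proportions per bin multiplied by bin number.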

Row | Variant | protein stability index
1 | FHCIETLVTTGANVNETDDWGRTQ [A24Q] | 2.06
2 | FHCIETLVTTGANVNETDDWGRTD [A24D] | 2.74
3 | FHCIETLVTTGANVNETDDWGRTH [A24H] | 2.39
4 | FHCIETLVTTGANVNETDDWGRTC [A24C] | 1.98
5 | FHCIETLVTTGANVNETDDWGRTL [A24L] | 1.91
6 | FHCIETLVTTGANVNETDDWGRTR [A24R] | 2.37
7 | FHCIETLVTTGANVNETDDWGRTW [A24W] | 1.16
8 | FHCIETLVTTGANVNETDDWGRTG [A24G] | 2.05
9 | FHCIETLVTTGANVNETDDWGRTT [A24T] | 2.21
10 | FHCIETLVTTGANVNETDDWGRTV [A24V] | 2.01
11 | FHCIETLVTTGANVNETDDWGRTS [A24S] | 2.06
12 | FHCIETLVTTGANVNETDDWGRTK [A24K] | 2.46
13 | FHCIETLVTTGANVNETDDWGRTF [A24F] | 2.24
14 | FHCIETLVTTGANVNETDDWGRTP [A24P] | 2.63
15 | FHCIETLVTTGANVNETDDWGRTY [A24Y] | 1.78
16 | FHCIETLVTTGANVNETDDWGRTM [A24M] | 2.39
17 | FHCIETLVTTGANVNETDDWGRTI [A24I] | 1.88
18 | FHCIETLVTTGANVNETDDWGRTE [A24E] | 2.27
19 | FHCIETLVTTGANVNETQDWGRTA [D18Q] | 1.69
20 | FHCIETLVTTGANVNETMDWGRTA [D18M] | 1.64
21 | FHCIETLVTTGANVNETWDWGRTA [D18W] | 2.07
22 | FHCIETLVTTGANVNETRDWGRTA [D18R] | 2.17
23 | FHCIETLVTTGANVNETGDWGRTA [D18G] | 1.79
24 | FHCIETLVTTGANVNETKDWGRTA [D18K] | 1.65

Row | Variant | protein stability index
25 | FHCIETLVTTGANVNETTDWGRTA [D18T] | 1.85
26 | FHCIETLVTTGANVNETEDWGRTA [D18E] | 2.09
27 | FHCIETLVTTGANVNETLDWGRTA [D18L] | 2.81
28 | FHCIETLVTTGANVNETNDWGRTA [D18N] | 2.26
29 | FHCIETLVTTGANVNETIDWGRTA [D18I] | 1.95
30 | FHCIETLVTTGANVNETADWGRTA [D18A] | 2.07
31 | FHCIETLVTTGANVNETPDWGRTA [D18P] | 1.71
32 | FHCIETLVTTGANVNETSDWGRTA [D18S] | 2.18
33 | FHCIETLVTTGANVNETCDWGRTA [D18C] | 2.14
34 | FHCIETLVTTGANVNETVDWGRTA [D18V] | 2.43
35 | FHCIETLVTTGANVNETYDWGRTA [D18Y] | 2.46
36 | FHCIETLVTTGANVNETHDWGRTA [D18H] | 1.54
37 | FHCIETLVTTGANVNETFDWGRTA [D18F] | 2.21
38 | FHCIETLVTTGANVNETDDEGRTA [W20E] | 3.19
39 | FHCIETLVTTGANVNETDDRGRTA [W20R] | 2.57
40 | FHCIETLVTTGANVNETDDHGRTA [W20H] | 2.94
41 | FHCIETLVTTGANVNETDDIGRTA [W20I] | 2.4
42 | FHCIETLVTTGANVNETDDSGRTA [W20S] | 3
43 | FHCIETLVTTGANVNETDDQGRTA [W20Q] | 2.66
44 | FHCIETLVTTGANVNETDDAGRTA [W20A] | 2.99
45 | FHCIETLVTTGANVNETDDLGRTA [W20L] | 3.26
46 | FHCIETLVTTGANVNETDDPGRTA [W20P] | 2.61
47 | FHCIETLVTTGANVNETDDKGRTA [W20K] | 3.03
48 | FHCIETLVTTGANVNETDDGGRTA [W20G] | 2.52

Row | Variant | protein stability index
49 | FHCIETLVTTGANVNETDDMGRTA [W20M] | 2.47
50 | FHCIETLVTTGANVNETDDYGRTA [W20Y] | 2.51
51 | FHCIETLVTTGANVNETDDVGRTA [W20V] | 2.77
52 | FHCIETLVTTGANVNETDDTGRTA [W20T] | 3.27
53 | FHCIETLVTTGANVNETDDFGRTA [W20F] | 2.66
54 | FHCIETLVTTGANVNETDDDGRTA [W20D] | 3.2
55 | FHCIETLVTTGANVNETDDCGRTA [W20C] | 2.43
56 | FHCIETLVTTGANVNETDDNGRTA [W20N] | 3.23
57 | FHCIETLVTTGANVNETDPWGRTA [D19P] | 2.26
58 | FHCIETLVTTGANVNETDHWGRTA [D19H] | 1.73
59 | FHCIETLVTTGANVNETDYWGRTA [D19Y] | 2.43
60 | FHCIETLVTTGANVNETDEWGRTA [D19E] | 2.49
61 | FHCIETLVTTGANVNETDQWGRTA [D19Q] | 2.06
62 | FHCIETLVTTGANVNETDKWGRTA [D19K] | 2.05
63 | FHCIETLVTTGANVNETDFWGRTA [D19F] | 2.58
64 | FHCIETLVTTGANVNETDGWGRTA [D19G] | 1.79
65 | FHCIETLVTTGANVNETDMWGRTA [D19M] | 2
66 | FHCIETLVTTGANVNETDCWGRTA [D19C] | 2.15
67 | FHCIETLVTTGANVNETDIWGRTA [D19I] | 3.48
68 | FHCIETLVTTGANVNETDWWGRTA [D19W] | 2.44
69 | FHCIETLVTTGANVNETDRWGRTA [D19R] | 1.66
70 | FHCIETLVTTGANVNETDTWGRTA [D19T] | 1.88
71 | FHCIETLVTTGANVNETDAWGRTA [D19A] | 1.56
72 | FHCIETLVTTGANVNETDLWGRTA [D19L] | 2.09

Row | Variant | protein stability index
73 | FHCIETLVTTGANVNETDSWGRTA [D19S] | 1.72
74 | FHCIETLVTTGANVNETDNWGRTA [D19N] | 1.75
75 | FHCIETLVTTGANVNETDVWGRTA [D19V] | 2.18
76 | FHCIETLVTTGANVNETDDWGKTA [R22K] | 2.36
77 | FHCIETLVTTGANVNETDDWGFTA [R22F] | 1.65
78 | FHCIETLVTTGANVNETDDWGWTA [R22W] | 1.49
79 | FHCIETLVTTGANVNETDDWGNTA [R22N] | 2.35
80 | FHCIETLVTTGANVNETDDWGATA [R22A] | 2.64
81 | FHCIETLVTTGANVNETDDWGSTA [R22S] | 2.71
82 | FHCIETLVTTGANVNETDDWGVTA [R22V] | 2.29
83 | FHCIETLVTTGANVNETDDWGDTA [R22D] | 3.09
84 | FHCIETLVTTGANVNETDDWGQTA [R22Q] | 2.7
85 | FHCIETLVTTGANVNETDDWGTTA [R22T] | 2.46
86 | FHCIETLVTTGANVNETDDWGMTA [R22M] | 2.27
87 | FHCIETLVTTGANVNETDDWGCTA [R22C] | 1.76
88 | FHCIETLVTTGANVNETDDWGLTA [R22L] | 2.5
89 | FHCIETLVTTGANVNETDDWGITA [R22I] | 1.9
90 | FHCIETLVTTGANVNETDDWGGTA [R22G] | 1.88
91 | FHCIETLVTTGANVNETDDWGPTA [R22P] | 3.06
92 | FHCIETLVTTGANVNETDDWGHTA [R22H] | 1.98
93 | FHCIETLVTTGANVNETDDWGETA [R22E] | 2.91
94 | FHCIETLVTTGANVNETDDWGYTA [R22Y] | 1.95
